The text below walks through data of the supplement of paper PMC10126150.

The subject of this data set is ATP. The experiment in a line: switch fluorescence ratio, 500 uM ATP over buffer (Cy3 cluster intensity, sum of 5 cycles each) (fold (ratio)); higher = stronger signal-on switching upon ATP binding; sequences stand for … in TCGTCGGCAGCGTCAGATGTGTATAAGAGACAGTTTTTTTTTTTTTTTTTTTTTTTTT…TC. Conditions: aptamer strand: ATP DNA aptamer (quencher-CACCTGGGGGAGTATTGCGGAGGAAGG + anchor), 100 nM annealed; ATP concentration: 500 uM. The method in brief:
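Between each of five buffer/ATP cycles, the flow-cell was stripped with NaOH and re-annealed. Each cycle imaged Cy3-labelled switching-strand clusters, annealed to 100 nM quencher-labelled ATP aptamer on a modified Illumina MiSeq flow-cell, first in selection buffer and then after 15 min with 500 uM ATP at 22 °C. The fluorescence ratio is summed target-cycle over summed buffer-cycle Cy3 intensity per cluster, averaged per switch-domain sequence, with clusters outside 100-1000 RFU excluded.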

± gives the standard deviation of the averaged measurements.
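Also: ATP exposure 15 min at 22 °C before imaging.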

Regarding GAAAGTATGT, the switch fluorescence ratio was determined as 1 ± 0.024.
On to GAAAGTCGGA, for which the switch fluorescence ratio worked out at 0.998 ± 0.066.
As to GAAAGTGCTA, the switch fluorescence ratio came to 1.07 ± 0.03.
Take GAAAGTGTGT: the switch fluorescence ratio was determined as 1.004 ± 0.0092.
The result for GAAAGTTAAA reads 1.038 ± 0.0091.
On to GAAATAATAA, for which the switch fluorescence ratio amounted to 1.01 ± 0.011.
With GAAATAGGGC, the switch fluorescence ratio was determined as 0.997 ± 0.0058.
As to GAAATATTTT, the switch fluorescence ratio is 0.996 ± 0.05.
In the case of GAAATCATGT, the switch fluorescence ratio was found to be 0.977 ± 0.023.
For GAAATCGTTT, the switch fluorescence ratio stood at 0.9949 ± 0.0082.
On to GAAATGATTC, for which the switch fluorescence ratio was 1 ± 0.024.
Turning to GAAATGGAGG, the switch fluorescence ratio was 0.995 ± 0.027.
Turning to GAAATGGGTG, the switch fluorescence ratio was 1.04 ± 0.078.
For the sequence GAAATTCCGA, the switch fluorescence ratio is 1.85 ± 1.1.
On to GAAATTTAAG, for which the switch fluorescence ratio was found to be 1.02 ± 0.035.
The result for GAAATTTAGG reads 0.9938 ± 0.0046; that for GAAATTTGAA, 1.01 ± 0.012.
For GAAATTTGGA, the switch fluorescence ratio was 0.991 ± 0.034.
GAAATTTGGT: the switch fluorescence ratio amounted to 0.99 ± 0.042.
GAACACTTAT: the switch fluorescence ratio was 1.04 ± 0.044.
For the sequence GAACCATGTT, the switch fluorescence ratio is 0.977 ± 0.014.
With GAACCGGATG the figure was 0.9997 ± 0.0074; with GAACCTAGAG, 0.98 ± 0.056.
As for GAACGAAGTT, the switch fluorescence ratio was 1 ± 0.018.
As to GAACGGAATT, the switch fluorescence ratio was 1.19 ± 0.023.
In the case of GAACGGCTG, the switch fluorescence ratio came to 1.07 ± 0.049.
The result for GAACGTCCAG reads 0.99 ± 0.027; that for GAACGTCTAC, 1.28 ± 0.056; that for GAACTAAGGA, 0.9895 ± 0.0027.
As to GAACTCATGA, the switch fluorescence ratio was 0.982 ± 0.012.
The result for GAACTGATAA reads 1.16 ± 0.2; that for GAACTGGTAG, 0.992 ± 0.035; that for GAACTTGGGA, 0.983 ± 0.058.
GAACTTGGTT: the switch fluorescence ratio turned out to be 1 ± 0.062.
As for GAACTTTTTT, the switch fluorescence ratio stood at 0.9935 ± 0.0083.
For GAAGAAAGAG, the switch fluorescence ratio stood at 1.02 ± 0.022.
As for GAAGACAGTA, the switch fluorescence ratio is 1.01 ± 0.013.
Turning to GAAGACGTTA, the switch fluorescence ratio was found to be 1.04 ± 0.023.
For the sequence GAAGAGCGGG, the switch fluorescence ratio amounted to 0.978 ± 0.016.
With GAAGATAGGT, the switch fluorescence ratio worked out at 0.993 ± 0.03.
Regarding GAAGATAGTG, the switch fluorescence ratio amounted to 0.986 ± 0.03.
As for GAAGATATTA, the switch fluorescence ratio worked out at 1 ± 0.011.
The result for GAAGATGGGG reads 1.01 ± 0.024.
With GAAGCAGCAG, the switch fluorescence ratio is 1.1888 ± 0.00054.
With GAAGCCCAGG, the switch fluorescence ratio was determined as 3.38 ± 2.6.
For GAAGCGCGTC, the switch fluorescence ratio stood at 0.998 ± 0.049.
The result for GAAGCTCCTG reads 0.996 ± 0.0043.
With GAAGCTTGGT, the switch fluorescence ratio was 0.972 ± 0.041.
Regarding GAAGGAAGAT, the switch fluorescence ratio amounted to 0.9708 ± 0.0069.
For GAAGGAAGTG, the switch fluorescence ratio was 1 ± 0.034.
On to GAAGGAATGT, for which the switch fluorescence ratio came out at 1 ± 0.022.
With GAAGGAGAAG the figure was 0.955 ± 0.0083.
Consider GAAGGCAAGG, for which the switch fluorescence ratio was found to be 1.07 ± 0.011.
Regarding GAAGGGAGCA, the switch fluorescence ratio was found to be 1.02 ± 0.028.
Consider GAAGGGATGT, for which the switch fluorescence ratio turned out to be 1.01 ± 0.042.
For the sequence GAAGGGCAGT, the switch fluorescence ratio was found to be 0.966 ± 0.029.
On to GAAGGGCGTT, for which the switch fluorescence ratio is 0.98247 ± 0.00082.
Take GAAGGGGACG: the switch fluorescence ratio worked out at 1.006 ± 0.0085.
GAAGGGGTGG: the switch fluorescence ratio was 1.01 ± 0.037.
The result for GAAGGGGTTC reads 1.06 ± 0.084; that for GAAGGGTAAT, 0.9955 ± 0.0036.
With GAAGGTAGAG, the switch fluorescence ratio was found to be 0.99 ± 0.042.
Turning to GAAGGTAGCA, the switch fluorescence ratio was 1.03 ± 0.041.
With GAAGGTATAC the figure was 1.66 ± 0.18; with GAAGGTATGT, 0.96567 ± 1.1e-05.
With GAAGGTGGGC the figure was 0.962 ± 0.028.
For the sequence GAAGGTTATG, the switch fluorescence ratio was found to be 1 ± 0.015.
The result for GAAGTAAGAG reads 1.11 ± 0.019; that for GAAGTAGTCG, 1.06 ± 0.017.
GAAGTATGGT: the switch fluorescence ratio came out at 1.01 ± 0.031.
The result for GAAGTCGTAG reads 0.96 ± 0.039.
Turning to GAAGTCGTGC, the switch fluorescence ratio stood at 0.999 ± 0.023.
The result for GAAGTCGTT reads 0.973 ± 0.0057.
For the sequence GAAGTGGGGG, the switch fluorescence ratio came to 1.01 ± 0.042.
Regarding GAAGTTATCG, the switch fluorescence ratio turned out to be 0.982 ± 0.022.
The result for GAAGTTGCCT reads 1.05 ± 0.028; that for GAAGTTGTCA, 1.02 ± 0.047.
GAAGTTGTGT: the switch fluorescence ratio was determined as 0.987 ± 0.031.
On to GAAGTTGTTG, for which the switch fluorescence ratio was 0.9642 ± 0.0036.
Regarding GAAGTTTTTG, the switch fluorescence ratio worked out at 0.993 ± 0.017.
The result for GAATAAATTT reads 1.02 ± 0.069; that for GAATACTTCG, 1.07 ± 0.016; that for GAATACTTGG, 1.04 ± 0.054.
As to GAATAGGGCC, the switch fluorescence ratio stood at 1.01 ± 0.028.
In the case of GAATAGGTAA, the switch fluorescence ratio worked out at 1.023 ± 0.0038.
Consider GAATAGGTAT, for which the switch fluorescence ratio is 0.99505 ± 0.00011.
The result for GAATATCTGG reads 0.97 ± 0.011; that for GAATATGTAG, 0.965 ± 0.044.
For the sequence GAATATTCGC, the switch fluorescence ratio stood at 0.9958 ± 0.0032.
As for GAATCAGGGA, the switch fluorescence ratio came out at 1.02 ± 0.015.
With GAATCATATG the figure was 0.977 ± 0.011; with GAATCATTTT, 1.02 ± 0.036; with GAATCGGGGG, 0.979 ± 0.044.
With GAATGACCCG the figure was 1.11 ± 0.012; with GAATGCGGAA, 1.0339 ± 0.00078; with GAATGGATGT, 1 ± 0.012.
With GAATGGCGTA, the switch fluorescence ratio was 1.02 ± 0.046.
Consider GAATGGGATA, for which the switch fluorescence ratio was found to be 1.04 ± 0.084.
With GAATGGTATA the figure was 0.9925 ± 0.0035; with GAATTACTAT, 1.038 ± 0.0087; with GAATTATCTA, 0.996 ± 0.022.
The result for GAATTCAGGT reads 0.994 ± 0.011; that for GAATTCCAGT, 0.9968 ± 0.0076.
In the case of GAATTCGGAA, the switch fluorescence ratio stood at 1.0486 ± 0.00049.
Regarding GAATTCGGAC, the switch fluorescence ratio is 1.04 ± 0.016.
In the case of GAATTTATGG, the switch fluorescence ratio was 0.985 ± 0.023.
As to GAATTTATTT, the switch fluorescence ratio stood at 0.999 ± 0.025.
For the sequence GAATTTGATT, the switch fluorescence ratio amounted to 1.02 ± 0.025.
With GACAAAAGGT the figure was 1.03 ± 0.013; with GACAAACCGC, 1.18 ± 0.032; with GACAAATGTG, 0.99815 ± 0.00093.
Consider GACAAGGGGG, for which the switch fluorescence ratio stood at 0.981 ± 0.065.
With GACACAAAAG the figure was 1.069 ± 0.0023; with GACACGGGCG, 1.044 ± 0.0035; with GACACTTGGA, 1.03 ± 0.014.
Consider GACAGAGGGC, for which the switch fluorescence ratio came out at 0.96 ± 0.062.
GACAGATGGT: the switch fluorescence ratio worked out at 1.01 ± 0.019.
Turning to GACAGGGGAG, the switch fluorescence ratio came to 1 ± 0.018.
On to GACAGTCAAA, for which the switch fluorescence ratio worked out at 1.01 ± 0.04.
With GACATAGCGG, the switch fluorescence ratio is 1.07 ± 0.03.
